Test results as given in patent US20220411514A1, “ANTI-GAL3 ANTIBODIES AND METHODS OF USE FOR INSULIN RESISTANCE” (TrueBinding, Inc., priority 2021, published 2022).

Test system: GLUT4 translocation in L6 GLUT4myc myoblasts
Experiment: Insulin-stimulated GLUT4 translocation with Gal3 and anti-Gal3 antibody
Type: cell-based, rat
Conditions: 30 μg/mL Gal3 pre-incubated with 60 μg/mL antibody, 100 nM insulin
Protocol: Rat L6 GLUT4myc myoblasts (Kerafast #ESK202-FP) express a Myc-tagged GLUT4 that can be detected with an anti-Myc antibody. These cells were grown in a 48-well plate in MEM u growth media (Gibco, #12-571-063)+10% fetal bovine serum (FBS; Corning #35-016-CV) until 90-95% confluence was reached. Cells were then washed in PBS and serum starved for 2 hours in MEM u growth media without FBS. Thirty (30) μg/mL recombinant human Gal3 (TrueBinding QCB200347) was pre-incubated with 60 μg/mL anti-Gal3 antibodies for 30 minutes before being added to the serum-starved cells for 1 hour at 37° C. At the end of incubation, half of the cells were treated with 100 nM insulin (Sigma-Aldrich #I5523-50MG) for 20 minutes while the other half acted as basal controls. After 20 minutes, cells were washed quickly with ice cold PBS twice, then incubated with 4% paraformaldehyde (Boster Bio #AR1068) for 10 minutes on ice followed by 10 minutes at room temperature. The cells were washed three times with PBS, then blocked with 0.5 mL 5% goat serum (Vector Laboratories #101098-382) in PBS for 15 minutes. After the blocking agent was aspirated from the cells, 1 μg/ml anti-Myc polyclonal antibody (Sigma-Aldrich #C-3956) in 5% goat serum was added for 1 hour. […] Primary antibody was aspirated away, and then cells washed 5 times with PBS. Next, cells (including background controls) were incubated with 1:1000 goat anti rabbit antibody secondary antibody (Abcam #Ab97051) in 5% Goat serum for 30 minutes at room temperature. After washing, cells were incubated with 400 μL of TMB (Thermo Scientific #PI34029) for 5 minutes, then 200 μL of 1N HCL (Avantor Performance #JT5620-2) was added to stop the reaction. 100 μL of the sample was transferred to a 96 well plate with duplicates transferred for each condition. Samples were read at 450 nm on a SpectraMax plate reader. […] The fold changes were plotted on GraphPad Prism and presented as mean (SEM) of the technical replicates. Statistical significance was determined using unpaired T-tests comparing samples treated with Gal3 and insulin with all other conditions.

Molecule	effect on Gal3 block of insulin-stimulated GLUT4 translocation
20H5.A3-VH3VL1: anti-Gal3 antibody, VH SEQ ID NO: 814, VL SEQ ID NO: 829 (antibody, V domains shown, VH-88 Peptide Sequence; VL-86 Peptide Sequence) VH: QIQLVQSGSELKKPGASVKVSCKASGYAFTTYGMSWVRQAPGQGLEWMGWVNTYSGVPTYADDFTGRFVFSLETSVSTAYLQISSLKAEDTAVYFCARGPYAMDYWGQGTLVTVSS VL: DIQMTQSPSSLSASVGDRVTITCQASQDISNYLNWYQQKPGKAPKLLIYYTSSLLTGVPSRFSGSGSGTDYTFTISSLQPEDIATYYCQQYSKLPYTFGQGTKLEIK	reduce the ability of Gal3 to block insulin-dependent GLUT4 translocation
20H5.A3-VH5VL1: anti-Gal3 antibody, VH SEQ ID NO: 817, VL SEQ ID NO: 832 (antibody, V domains shown, VH-91 Peptide Sequence; VL-89 Peptide Sequence) VH: QVQLVQSGFELKKPGASVKISCKASGYAFTTYGMSWVRQAPGQGLEWMGWVNTYSGVPTYAQAFTGRFVFSLDTSVSTAYLQISSLKAEDTAVYYCARGPYAMDYWGQGTLVTVSS VL: DIQMTQSPSSLSASVGDRVTITCQASQDISNYLNWYQQKPGKAPKLLIYYTSSLLTGVPSRFSGSGSGTDYTFTISSLQPEDIATYYCQQYSKLPYTFGQGTKLEIK	reduce the ability of Gal3 to block insulin-dependent GLUT4 translocation
20H5.A3-VH5VL3: anti-Gal3 antibody, VH SEQ ID NO: 818, VL SEQ ID NO: 833 (antibody, V domains shown, VH-92 Peptide Sequence; VL-90 Peptide Sequence) VH: QVQLVQSGFELKKPGASVKISCKASGYAFTTYGMSWVRQAPGQGLEWMGWVNTYSGVPTYAQAFTGRFVFSLDTSVSTAYLQISSLKAEDTAVYYCARGPYAMDYWGQGTLVTVSS VL: DIQMTQSPSSLSASVGDRVTITCRASQDISNYLNWYQQKPGKAPKLLIYYTSSLLSGVPSRFSGSGSGTDYTLTISSLQPEDFATYYCQQYSKLPYTFGQGTKLEIK	reduce the ability of Gal3 to block insulin-dependent GLUT4 translocation
20H5.A3-VH3VL3: anti-Gal3 antibody, VH SEQ ID NO: 815, VL SEQ ID NO: 830 (antibody, V domains shown, VH-89 Peptide Sequence; VL-87 Peptide Sequence) VH: QIQLVQSGSELKKPGASVKVSCKASGYAFTTYGMSWVRQAPGQGLEWMGWVNTYSGVPTYADDFTGRFVFSLETSVSTAYLQISSLKAEDTAVYFCARGPYAMDYWGQGTLVTVSS VL: DIQMTQSPSSLSASVGDRVTITCRASQDISNYLNWYQQKPGKAPKLLIYYTSSLLSGVPSRFSGSGSGTDYTLTISSLQPEDFATYYCQQYSKLPYTFGQGTKLEIK	reduce the ability of Gal3 to block insulin-dependent GLUT4 translocation
20H5.A3-VH4VL1: anti-Gal3 antibody, VH SEQ ID NO: 816, VL SEQ ID NO: 831 (antibody, V domains shown, VH-90 Peptide Sequence; VL-88 Peptide Sequence) VH: QIQLVQSGSELKKPGASVKVSCKASGYAFTTYGMSWVRQAPGQGLEWMGWVNTYSGVPTSADDFTGRFVFSLETSVSTAYLQISSLKAEDTAVYFCARGPYAMDYWGQGTLVTVSS VL: DIQMTQSPSSLSASVGDRVTITCQASQDISNYLNWYQQKPGKAPKLLIYYTSSLLTGVPSRFSGSGSGTDYTFTISSLQPEDIATYYCQQYSKLPYTFGQGTKLEIK	reduce the ability of Gal3 to block insulin-dependent GLUT4 translocation
